The target in experiment [1] is plasminogen (Homo sapiens) (UniProt P00747). The conditions noted are these: cited from earlier work.
Experiment [2] addresses recombinant mature PAM (Asn1-Gln351, plus (His)6) (Streptococcus pyogenes (GAS) strain AP53) (UniProt P49054).
For experiment [3], the target named is recombinant streptococcal enolase (Sen) from GAS strain AP53 (Streptococcus pyogenes (GAS) strain AP53). Briefly: ELISA; Sen coated on high protein binding 96-well plates overnight at 4°C; hPg added at 25°C for 1 h; detected with HRP-conjugated monoclonal mouse-anti hPg; saturation curve. A general note: An ELISA detects its analyte on a solid surface through an enzyme-linked reagent.
Chain of recombinant streptococcal enolase (Sen) from GAS strain AP53 (Streptococcus pyogenes (GAS) strain AP53) (A2RFE3 whole entry): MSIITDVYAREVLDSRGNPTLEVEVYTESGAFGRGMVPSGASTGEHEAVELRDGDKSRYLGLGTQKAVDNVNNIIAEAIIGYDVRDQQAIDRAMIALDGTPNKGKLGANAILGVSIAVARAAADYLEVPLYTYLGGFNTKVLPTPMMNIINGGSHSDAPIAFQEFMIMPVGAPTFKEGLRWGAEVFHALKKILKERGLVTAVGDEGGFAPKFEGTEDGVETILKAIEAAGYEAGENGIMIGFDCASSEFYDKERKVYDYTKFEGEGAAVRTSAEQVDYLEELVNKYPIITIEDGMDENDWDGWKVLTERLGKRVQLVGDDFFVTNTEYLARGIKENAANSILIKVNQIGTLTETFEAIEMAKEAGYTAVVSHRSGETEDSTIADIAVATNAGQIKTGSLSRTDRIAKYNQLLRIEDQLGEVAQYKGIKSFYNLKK

Experiment [4] has the same target.
Experiment [5] shares this target. Briefly: SPR; Sen amine-coupled to a CM-5 chip (~1,000 RU); hPg as analyte, 9 to 2,400 nM; 25°C, HBS-EP+ (10 mM Na-Hepes/150 mM NaCl/3 mM EDTA/0.05% polysorbate 20, pH 7.4); equilibrium (affinity) fit.
The target is the same in experiment [6]. Briefly: AUC; sedimentation velocity, 20°C, 50 mM Na phosphate/0.1 M NaCl, pH 7.4; 30,000 rpm for Sen, 35,000 rpm for hEno; three protein dilutions; no concentration-dependent dissociation down to at least 0.1 mg/ml.
Experiment [7] has the same target. Briefly: SEC-MALS; each protein 100 μl of 1 mg/ml on a WTC-030S5 column, PBS, pH 7.4, flow rate 0.5 ml/min. Background: In gel filtration, larger molecules generally elute earlier.

The values that follow come from publication PMC9173704.

Chain of UniProt P00747 (P00747 20-810): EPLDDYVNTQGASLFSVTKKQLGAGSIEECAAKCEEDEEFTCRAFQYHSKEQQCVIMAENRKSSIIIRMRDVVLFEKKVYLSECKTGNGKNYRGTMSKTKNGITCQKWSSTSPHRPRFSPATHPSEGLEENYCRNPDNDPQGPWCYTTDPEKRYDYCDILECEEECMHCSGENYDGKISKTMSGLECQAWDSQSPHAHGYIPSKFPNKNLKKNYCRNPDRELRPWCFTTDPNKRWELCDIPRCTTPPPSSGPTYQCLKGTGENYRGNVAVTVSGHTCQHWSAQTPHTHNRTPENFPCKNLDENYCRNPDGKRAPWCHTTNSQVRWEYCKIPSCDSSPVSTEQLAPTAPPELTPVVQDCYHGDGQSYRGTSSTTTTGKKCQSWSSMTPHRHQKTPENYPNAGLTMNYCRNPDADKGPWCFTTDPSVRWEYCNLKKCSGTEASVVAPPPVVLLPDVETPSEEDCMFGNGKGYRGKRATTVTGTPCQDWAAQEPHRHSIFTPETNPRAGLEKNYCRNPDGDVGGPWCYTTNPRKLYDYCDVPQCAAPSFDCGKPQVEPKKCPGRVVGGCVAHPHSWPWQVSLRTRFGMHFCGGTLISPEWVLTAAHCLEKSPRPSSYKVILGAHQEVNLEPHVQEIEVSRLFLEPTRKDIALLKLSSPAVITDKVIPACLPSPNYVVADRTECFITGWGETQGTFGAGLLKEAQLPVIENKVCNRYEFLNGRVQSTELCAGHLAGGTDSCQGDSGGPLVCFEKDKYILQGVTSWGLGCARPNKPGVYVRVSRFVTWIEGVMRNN

As usually defined, the Kd is a measure of binding affinity in units of concentration. Consider “plasminogen-binding M-protein (PAM) (from UniProt P49054)”, for which the dissociation constant (Kd) in experiment [1] was 1 nM.
Consider “recombinant human plasminogen (hPg) (natural protein)”, for which, in experiment [2], the rate of activation of hPg by tPA on PAM-coated plates against free hPg, hydrolysis of S2251 was 2.5 fold. The results for the C50 in experiment [3] and in experiment [5] were 125 nM and 111 nM, respectively. Besides, the rate of activation of hPg by tPA with Sen bound to DOPG vesicles against vesicles without Sen, hydrolysis of S2251 in experiment [4] fell in the range of 6 to 8 fold.
Usually stoichiometry N stands for the number of molecules, sites or subunits per partner or assembly. As for “recombinant streptococcal enolase (Sen) from GAS strain AP53 (enzyme)”, the stoichiometry N in experiment [6] and in experiment [7] was 8 in each case.
